The values below come from the DeepSol protein solubility set.

The nature of this data set: soluble on expression in E. coli; label from the status in PepcDB or PDB records.
As for “MWFIMMDTKDPPTLLDLATQNLLSNEHAAIQALEEIPRELFVPLFTAAFTGRHKNILTAIVKAWPFACLHIGALSVQEPERELLKALIESLQFLLALNSATRSPKLRILDLRQDAGCKTVCPEISTNSTICFRSCAHSEHSIFKIEGQESLSSSKSEAQPSRLPMELIVDISLDGTLRERNFFALLQNKVEQSLGSLHLCCRDLQINNLCECRHALSHLDLKCVDHLAVDESPLTEVTKLLSHTIQLDSLSLSKIACRSLNGRTFRNFITQLSRMNHLKELSLSSFCLTDHLENVLRVLSADLEFLYLPFCGLSYSDFKFLSECSQVSHLKLLNVNNNPIYWEDCEPFYYLLQNVSSTLQHLKICYCFLTDSTISVLIPALTRCSQLRVLHFYSNQITMGMLMRILELLTPLKELKHVIYPIPVHCYGRWHFQGSLDRQKVEDVQRQLNLMLQEAERSDMNWITYSD”, the “soluble on expression in E. coli” value was “not soluble”. Consider “MWGACKVKVHDSLATISITLRRYLRLGATMAKSKFEYVRDFEADDTCLAHCWVVVRLDGRNFHRFAEKHNFAKPNDSRALQLMTKCAQTVMEELEDIVIAYGQSDEYSFVFKRKTNWFKRRASKFMTHVASQFASSYVFYWRDYFEDQPLLYPPGFDGRVVVYPSNQTLKDYLSWRQADCHINNLYNTVFWALIQQSGLTPVQAQGRLQGTLAADKNEILFSEFNINYNNEPPMYRKGTVLIWQKVDEVMTKEIKLPTEMEGKKMAVTRTRTKPVPLHCDIIGDAFWKEHPEILDEDS”, for which the “soluble on expression in E. coli” value is “soluble”. In the case of “MWIGMRDKWKGVGKVTQQEIIESLLQFINQETSTEEEFNEHALMLFAYQYENNLPYRTYCMQKGKTARTVKTWRDIPAVPINAFKELTLSCVSPEQAERVFMTSGTTRGVRGKHYHPTLSVYDHSMIVNFRKRFMKERDKIKMGILFPTEEHMPNSSLAHYLALAVNVFGTEDSHYLVDRDGLNMDRLLAELEQAEQSGEPYALLGASFSFVHVFEELAKRGKTFRLPEGSRILDTGGFKNQSREMDLDEFYDTLSAYLGVPRRECINMYGMTELSTQFYDDGNETVPSVKSGPHWIRTRVIHPLTGEEMPKGKRGVLVHCDLGNFNSVTTILTEDMGVETDGGFLLLGRVQGAEAKGCSMAVEEFIRAAKGTSELEHHHHHH” it was “not soluble”; in that of “MWKITENLYLAQLPMIVGPTSKQEFSKNDIKRVLTLTTEPISEKQKIGGVDYKFLHLLDMPDEPILDNAILETAVLYINEGVEKEENVGVHCLAAVSRSVSICAAYLMYKNQWPVEKALKMIESVRKTIGPNAGFLAQLKIWERSGMSFSADQYKNLKIDIPGITCVDSKTIWRQPVIDDQTKVRFKCRQCRKVIFNSDNIVHPLAEACQKYLIEPMAWLNVSGATCSVSHTCGAKLGTFIASGSKCNGCNKFVRQWIFINRTKLDKVEIAT”, “not soluble”. In the case of “MWKRLCAGLSCRKFINQVTMTSVNKNRKSRDENEMAKYNEKELADTSKFLSFVLRHKPEAIGIVLDREGWADIDKLILCAQKAGKRLTRALLDTVVATSDKKRFSYSSDGRCIRAVQGHSTSQVAISFAEKTPPQFLYHGTASRFLDEIKKQGLIAGERHYVHLSADEATARKVGARHGSPVILTVKAQEMAKRGLPFWQAENGVWLTSTVAVEFLEW” it was “soluble”; in that of “MWMKDPVARPLSPTRLQPALPPEAQSVPELEEVARVLAEIPRPLKRRGSMEQAPAVALPPTHKKQYQQIISRLFHRHGGPGPGGRSQSCPPSLRDLRPGQGPLLLPHQLPFHRPAPSQSSPPEQPQSMEMRSVLRKAGSPRKARRARLNPLVLLLDAALTGELEVVQQAVKEMNDPSQPNEEGITALHNAICGANYSIVDFLITAGANVNSPDSHGWTPLHCAASCNDTVICMALVQHGAAIFATTLSDGATAFEKCDPYREGYADCATYLADVEQSMGLMNSGAVYALWDYSAEFGDELSFREGESVTVLRRDGPEETDWWWAALHGQEGYVPRNYFGLFPRVKPQRSKV”, “soluble”; in that of “MWPDNRIARDAHYLYRYDRHGRLTEKTDLIPEGVIRTDDERTHRYHYDSQHRLVHYTRTQYAEPLVESRYLYDPLGRRVAKRVWRRERDLTGWMSLSRKPQVTWYGWDGDRLTTIQNDRTRIQTIYQPGSFTPLIRVETATGELAKTQRRSLADTLQQSGGEDGGSVVFPPVLVQMLDRLESEILADRVSEESRRWLASCGLTVEQMQNQMDPVYTPARKIHLYHCDHRGLPLALVSTEGATEWCAEYDEWGNLLNEENPHQLQQLIRLPGQQYDEESGLYYNRHRYYDPLQGRYITQDPIGLKGGWNFYQYPLNPVQYIDSMGLASKYGHLNNGGYGARPNKPPTPDPSKLPDIAKQLRLPYPIDQASSAPNVFKTFFRALSPYDYTLYCRKWVKPNLTCTPQDDSQYPGMDTKTASDYLPQTNWPTTQLPPGYTCAEPYLFPDINKPDGPATAGIDDLGEILAKMKQRTSRGIRKLEHHHHHH”, “not soluble”.
